Assay results reported in US20140005119A1, “COMPOSITIONS AND METHODS FOR INHIBITING THE ACTIVITY OF P110a MUTANT PROTEINS” (Case Western Reserve University, priority 2012, published 2014).
Where no end group is shown, it is not given here.

Columns and labels:
[1] = molecular target: T1, interaction between p110α E545K and IRS1 (Homo sapiens, UniProt P35568); assay: Peptide competition assay in cell lysates (anti-FLAG immunoprecipitation, anti-IRS1 blot); assay type: binding; settings: peptide added into cell lysates of p110α E545K 3×FLAG KI cells
T1 construct: In KI DLD1 cells, IRS1 was co-immunoprecipitated with p110α E545K but not the WT p110α; endogenous in cells; host or cells: DLD1 p110α E545K 3×FLAG knock-in cells (rAAV gene targeting of the endogenous allele)
T1 sequence (P35568 1-1242): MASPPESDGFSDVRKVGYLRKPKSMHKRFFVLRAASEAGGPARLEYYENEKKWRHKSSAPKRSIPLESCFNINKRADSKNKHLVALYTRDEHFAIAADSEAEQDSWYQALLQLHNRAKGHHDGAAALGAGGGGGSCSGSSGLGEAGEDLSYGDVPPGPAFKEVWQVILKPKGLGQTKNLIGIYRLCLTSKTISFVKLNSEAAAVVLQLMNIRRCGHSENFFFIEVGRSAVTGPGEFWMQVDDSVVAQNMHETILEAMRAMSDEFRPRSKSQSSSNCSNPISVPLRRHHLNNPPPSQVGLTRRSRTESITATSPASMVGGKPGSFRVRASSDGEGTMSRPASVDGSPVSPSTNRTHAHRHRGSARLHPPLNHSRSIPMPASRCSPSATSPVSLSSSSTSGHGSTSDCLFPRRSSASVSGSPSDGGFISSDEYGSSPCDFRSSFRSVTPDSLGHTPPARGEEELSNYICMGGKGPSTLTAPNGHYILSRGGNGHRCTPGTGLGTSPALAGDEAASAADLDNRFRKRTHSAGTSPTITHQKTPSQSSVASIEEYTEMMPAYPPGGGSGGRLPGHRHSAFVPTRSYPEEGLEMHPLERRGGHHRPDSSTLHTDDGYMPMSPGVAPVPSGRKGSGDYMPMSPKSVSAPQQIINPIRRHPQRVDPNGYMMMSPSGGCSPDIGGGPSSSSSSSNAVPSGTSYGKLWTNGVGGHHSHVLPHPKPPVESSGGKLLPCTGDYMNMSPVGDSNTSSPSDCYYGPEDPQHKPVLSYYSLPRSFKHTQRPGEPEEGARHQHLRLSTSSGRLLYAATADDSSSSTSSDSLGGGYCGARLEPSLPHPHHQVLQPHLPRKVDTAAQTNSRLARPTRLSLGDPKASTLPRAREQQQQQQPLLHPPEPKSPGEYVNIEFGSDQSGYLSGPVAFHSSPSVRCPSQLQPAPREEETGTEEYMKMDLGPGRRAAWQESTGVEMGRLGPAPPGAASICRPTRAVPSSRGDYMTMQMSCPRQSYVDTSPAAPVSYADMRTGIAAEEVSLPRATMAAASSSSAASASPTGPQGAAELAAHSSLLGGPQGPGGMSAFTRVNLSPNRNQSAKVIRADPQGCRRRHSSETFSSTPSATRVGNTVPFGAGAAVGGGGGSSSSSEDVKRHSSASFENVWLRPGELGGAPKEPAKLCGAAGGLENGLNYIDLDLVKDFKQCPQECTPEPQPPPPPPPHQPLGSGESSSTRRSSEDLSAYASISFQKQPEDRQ
Experimental: FIGS. 3(A-M) illustrate: (A, B) Mapping peptides (P3, SEQ ID NO: 1; P4 SEQ ID NO: 2; P5, SEQ ID NO: 3; P6, SEQ ID NO: 4) derived from mutant p110α that inhibit interaction between IRS1 and p110α E545K. The indicated peptides were added into cell lysates made from the p110α E545K 3×FLAG KI cells. Cell lysates were immunoprecipitated with beads conjugated with anti-FLAG antibodies and then blotted with anti-IRS1 antibodies. (C) Immunoblots of cell lysates made from the p110α E545K 3×FLAG KI cells. Cell lysates were immunoprecipitated with beads conjugated with anti-FLAG antibodies and then blotted with the indicated antibodies. (D) Immunoblots of cell lysate of Myc-tagged IRS1 plasmid, which co-transfected an ABD domain deletion construct of the FLAG-tagged p110α E545K mutant (ΔABD), incubated with the indicated amount of stapled p110α mutant peptides, and then immunoprecipitated with anti-FLAG antibodies and blotted with the indicated antibodies. (J, K) Immunoblot and graph of purified recombinant p110α E545K mutant proteins mixed with the indicated components and quantified using an in vitro lipid kinase assay. (L, M) Immunoblots of the indicated cell lines serum-starved, stimulated with 1 μg/ml insulin for 30 min, and then treated with or without the indicated peptides. Cell lysates were blotted with the indicated antibodies. All error bars show mean±SEM. *p<0.05, **p<0.001, t test.
(§1) For Co-immunoprecipitation (Co-IP), cells were harvested, washed with PBS, and then lysed in IP buffer (50 mMTris [pH 7.4], 150 mMNaCl, 5 mMEDTA [pH 8.0], 0.5% NP40, 1 mM PMSF, complete Protease Inhibitor Cocktail tablet [Roche]; supplemented with phosphatase inhibitors [1 mM Na3VO4, 20 mM NaF, 0.1 mM b-glycerophosphate, 20 mM sodium pyrophosphate] when necessary). For immunoblotting (IB) of phospho-specific proteins, unless stated otherwise, cells were lysed in urea buffer (100 mM NaH2PO4, 10 mM Tris-HCl, 8 M Urea, 1 mM Na3VO4, 20 mM NaF, 0.1 mM β-glycerophosphate, 20 mM sodium pyrophosphate, supplemented with complete Protease Inhibitor Cocktail tablet [Roche], pH 8.0). Lysates were then cleared by centrifugation (14,000 rpm, 10 min) and protein concentration in supernatants was determined with a BCA protein assay kit (Pierce, Rockford, Ill.). Equal amounts of total protein were used for IP or IB.
For in vitro peptide competition assay, the p110α mutant-FLAG-tagged cells were grown to 90% confluency, serum-starved overnight, and lysed as described previously. Peptides were then added to the cell lysates, incubated for 30 min at 4° C. and followed by immunoprecipitation assay.

[2] = molecular target: insulin receptor substrate 1 (IRS1) (UniProt P35568)
[3] = molecular target: T2, IRS1-p110α E545K interaction in DLD1 cells (Homo sapiens, UniProt P35568); assay: Co-IP after peptide added to culture medium of p110α E545K 3×FLAG KI DLD1 cells; assay type: cell-based; design: dose or concentration left out as unconfirmed; settings: peptide added to cell culture medium for 16 hr
T2 construct: endogenous in cells; host or cells: DLD1 p110α E545K 3×FLAG knock-in cells (rAAV gene targeting of the endogenous allele)
T2 sequence (P35568 1-1242): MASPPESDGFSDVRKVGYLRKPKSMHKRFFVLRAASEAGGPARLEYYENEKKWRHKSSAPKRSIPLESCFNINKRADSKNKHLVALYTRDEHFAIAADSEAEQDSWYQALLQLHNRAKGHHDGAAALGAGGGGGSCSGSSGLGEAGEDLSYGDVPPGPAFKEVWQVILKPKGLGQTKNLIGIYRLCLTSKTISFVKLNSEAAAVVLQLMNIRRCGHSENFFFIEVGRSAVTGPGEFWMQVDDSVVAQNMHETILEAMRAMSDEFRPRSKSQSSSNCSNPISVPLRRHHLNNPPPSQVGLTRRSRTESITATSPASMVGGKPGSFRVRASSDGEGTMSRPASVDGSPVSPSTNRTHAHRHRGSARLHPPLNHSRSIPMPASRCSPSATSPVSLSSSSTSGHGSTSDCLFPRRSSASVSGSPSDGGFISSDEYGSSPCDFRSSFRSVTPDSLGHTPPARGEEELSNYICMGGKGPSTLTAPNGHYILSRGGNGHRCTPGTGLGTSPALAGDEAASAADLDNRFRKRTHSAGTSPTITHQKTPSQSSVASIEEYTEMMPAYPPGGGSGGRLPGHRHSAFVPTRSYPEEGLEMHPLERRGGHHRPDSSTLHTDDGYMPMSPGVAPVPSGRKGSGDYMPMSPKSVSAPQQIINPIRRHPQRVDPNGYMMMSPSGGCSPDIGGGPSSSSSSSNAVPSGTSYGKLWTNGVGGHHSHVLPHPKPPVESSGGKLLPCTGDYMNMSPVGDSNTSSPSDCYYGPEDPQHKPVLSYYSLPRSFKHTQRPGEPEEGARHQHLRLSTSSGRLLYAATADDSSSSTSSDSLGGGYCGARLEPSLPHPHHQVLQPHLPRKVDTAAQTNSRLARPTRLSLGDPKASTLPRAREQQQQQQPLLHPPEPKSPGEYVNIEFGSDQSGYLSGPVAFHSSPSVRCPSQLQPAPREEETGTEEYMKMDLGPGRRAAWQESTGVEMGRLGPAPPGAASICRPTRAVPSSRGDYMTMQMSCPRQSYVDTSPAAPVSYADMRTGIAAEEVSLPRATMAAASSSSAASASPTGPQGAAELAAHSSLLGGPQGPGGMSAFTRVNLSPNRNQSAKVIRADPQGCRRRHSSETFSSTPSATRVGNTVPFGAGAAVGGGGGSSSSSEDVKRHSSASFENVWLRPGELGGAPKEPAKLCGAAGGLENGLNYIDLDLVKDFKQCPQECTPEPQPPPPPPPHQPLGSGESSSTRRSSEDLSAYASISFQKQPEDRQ
Experimental: FIG. 4(A-F) illustrate: (A) Schematic diagram of linear and stapled WT and mutant peptides derived from p110α (SEQ ID NOs: 5, 6, 7 and 8). (B) Immunoblots of cell lysates immunoprecipitated with beads conjugated with anti-FLAG antibodies and then blotted with the indicated antibodies. Linear or stapled WT and mutant peptide were added into culture medium of the p110α E545K 3×FLAG KI cells for 16 hr. (C) Immunoblots of cell lysates immunoprecipitated with anti-p110α antibodies and then blotted with the indicated antibodies. Vaco481 CRC cells were treated with the stapled mutant peptides at the indicated concentration. (D) Immunoblots of cell lysates blotted with the indicated antibodies. The indicated cell lines were treated with the stapled mutant peptide. (E) Immunoblots of cell lysates blotted with the indicated antibodies. The indicated cancer cell lines were treated or untreated with stapled WT or mutant peptide at […] for 2 hr. (F) Immunoblots of cell lysates were blotted with the indicated antibodies. The indicated cancer cell lines were treated with or without […] of stapled mutant peptide for 2 hr.
as §1

[4] = molecular target: T3, wild-type p110α (endogenous, untagged) (UniProt P42336 1-1068); assay: pull-down with His-tagged IRS1 fragment from WT-only DLD1 lysates (FIG. 1B)
T3 construct: also called WT p110α
Text: The altered interaction properties of the mutant forms of p110α prompted us to map the minimal essential regions of IRS1 required for its interaction with p110α E545K mutant protein. For this study, we made a series of 6×His-tagged IRS1 truncation constructs (FIGS. 1A and 1C). The His-tagged IRS1 proteins were first expressed in Eschericia coli and purified with Ni-NTA beads. Then the purified proteins were used to pull down p110α from DLD1 cells expressing either the WT p110α only or the p110α E545K mutant only. With these proteins, we first mapped the mutant p110α interaction domain to the middle part of IRS1 (amino acid [AA] 585-962) (FIG. 1B). This fragment contains three YxxM motifs that mediate the pY dependent IRS1-p85 protein interaction. We thus constructed an unphosphorylatable IRS1Y3F mutant fragment (FIG. 1A). […] In contrast, neither of the single region deletions could interrupt the IRS1 mutant p110α interaction. […] Finally, similar results were also observed when the IRS1D was expressed in p110α E545K 3×FLAG KI DLD1 cells.

T3 sequence (P42336 whole entry, the tested form may be a part): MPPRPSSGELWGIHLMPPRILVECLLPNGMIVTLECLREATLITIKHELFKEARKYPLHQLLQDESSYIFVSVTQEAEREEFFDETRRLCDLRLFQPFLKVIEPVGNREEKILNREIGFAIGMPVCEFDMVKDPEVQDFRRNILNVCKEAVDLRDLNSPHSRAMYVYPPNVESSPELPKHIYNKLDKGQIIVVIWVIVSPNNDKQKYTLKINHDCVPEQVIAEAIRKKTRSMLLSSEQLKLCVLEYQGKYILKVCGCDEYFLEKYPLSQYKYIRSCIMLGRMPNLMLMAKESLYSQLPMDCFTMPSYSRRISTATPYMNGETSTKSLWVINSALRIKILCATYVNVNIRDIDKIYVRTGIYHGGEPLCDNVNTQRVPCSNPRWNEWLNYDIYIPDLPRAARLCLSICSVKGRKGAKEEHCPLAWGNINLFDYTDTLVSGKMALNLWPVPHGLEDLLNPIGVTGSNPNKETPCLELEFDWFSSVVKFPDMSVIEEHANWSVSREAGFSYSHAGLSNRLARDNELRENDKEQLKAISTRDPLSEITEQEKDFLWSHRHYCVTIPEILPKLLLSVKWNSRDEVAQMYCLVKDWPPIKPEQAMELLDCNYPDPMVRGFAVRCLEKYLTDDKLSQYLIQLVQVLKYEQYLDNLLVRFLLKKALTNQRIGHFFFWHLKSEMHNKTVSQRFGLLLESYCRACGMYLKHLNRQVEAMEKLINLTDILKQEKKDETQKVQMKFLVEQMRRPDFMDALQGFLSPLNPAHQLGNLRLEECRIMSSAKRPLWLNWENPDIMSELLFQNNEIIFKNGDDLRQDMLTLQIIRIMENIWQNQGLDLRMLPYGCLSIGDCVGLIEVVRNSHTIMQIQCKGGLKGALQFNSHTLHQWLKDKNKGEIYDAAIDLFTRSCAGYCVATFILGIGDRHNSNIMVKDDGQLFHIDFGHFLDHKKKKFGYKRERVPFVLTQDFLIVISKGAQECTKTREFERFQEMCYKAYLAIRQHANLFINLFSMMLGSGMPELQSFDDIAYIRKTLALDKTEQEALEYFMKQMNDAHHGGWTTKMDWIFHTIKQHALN

Molecule: WT peptide: linear 30-AA wild-type p110α counterpart of the 30-AA E545K mutant peptide (EQLKAISTRDPLSEITEQEKDFLWSHRHYC-OH; listed as Homo sapiens) [reference compound]
- inhibition of the interaction between p110α E545K and IRS1 [1]: failed to cause any inhibition

Molecule: p110α E545K mutant (endogenous, untagged)
- AKT phosphorylation [2]: the stapled mutant peptide, but not the WT counterpart, reduced AKT phosphorylation in mutant-only DLD1 cells
- AKT phosphorylation at both T308 and S473 residues [2]: treatment of cancer cell lines (DLD1, H460, and MDA-MB361) harboring p110α E545K ... with the stapled mutant peptide resulted in reduced AKT phosphorylation

Molecule: 18-AA mutant peptide: linear 18-AA E545K mutant peptide corresponding to the C-terminal α-helical motif of p110α helical domain (SEITKQEKDFLWSHRHYC-OH; listed as Homo sapiens)
- disruption of IRS1-p110α E545K interaction in DLD1 cells [3]: neither the linear mutant peptide nor the stapled WT peptide affected the interaction
- inhibition of the interaction between p110α E545K and IRS1 [1]: moderate inhibition
- inhibition of the interaction between p110α E545K and IRS1 ([1]; listed as peptide corresponding to the C-terminal α-helical motif): inhibited

Molecule: 30-AA mutant peptide: linear 30-AA p110α E545K mutant peptide forming two α-helix domains flanking the mutation site (EQLKAISTRDPLSEITKQEKDFLWSHRHYC-OH; listed as Homo sapiens)
- inhibition of the interaction between p110α E545K and IRS1 [1]: inhibited

Molecule: N-terminal 21-AA mutant peptide: linear N-terminal 21-AA mutant peptide corresponding to the N-terminal α-helical motif (EQLKAISTRDPLSEITKQEKD-OH; listed as Homo sapiens)
- inhibition of the interaction between p110α E545K and IRS1 [1]: no effect

B1: 6×His-tagged IRS1 middle fragment (AA 585-962) (other, UniProt P35568 585-962, looked up)
chain: EGLEMHPLERRGGHHRPDSSTLHTDDGYMPMSPGVAPVPSGRKGSGDYMPMSPKSVSAPQQIINPIRRHPQRVDPNGYMMMSPSGGCSPDIGGGPSSSSSSSNAVPSGTSYGKLWTNGVGGHHSHVLPHPKPPVESSGGKLLPCTGDYMNMSPVGDSNTSSPSDCYYGPEDPQHKPVLSYYSLPRSFKHTQRPGEPEEGARHQHLRLSTSSGRLLYAATADDSSSSTSSDSLGGGYCGARLEPSLPHPHHQVLQPHLPRKVDTAAQTNSRLARPTRLSLGDPKASTLPRAREQQQQQQPLLHPPEPKSPGEYVNIEFGSDQSGYLSGPVAFHSSPSVRCPSQLQPAPREEETGTEEYMKMDLGPGRRAAWQESTGVEM
notes: range 585-962; Expressed in E. coli BL21, purified on Ni-NTA beads; also called middle part of IRS1; middle fragment of IRS1; not shown: 6×His tag
- binding result [4]: no binding
